Measurements taken from article PMC5358875 (Journal of the American Chemical Society, 2017).
Bridge positions count the residues as written; N and C are the ends. Square brackets hold non-standard residues; d marks the D form. Ends that are not written are not given here. * marks the point of attachment. 5‑TAMRA = CN(C)c1ccc2c(-c3ccc(C(=O)*)cc3C(=O)[O-])c3ccc(N(C)C)cc3[o+]c2c1; n3 = azido unnatural amino acid, 3 CH2 in side chain; Lys(N3) = [N-]=[N+]=NCCCC[C@H](N)C(=O)O; Dap(N3) = [N-]=[N+]=NC[C@H](N)C(=O)O; Aha = [N-]=[N+]=NCC[C@H](N)C(=O)O; m3c = not defined here; m3 = not defined here; m4 = not defined here; m5 = not defined here; Ahx = NCCCCCC(=O)O

T1: TNKS2 ARC4 (Homo sapiens, UniProt Q9H2K2)
T1 construct: GST (cleaved yes); made in house; host or cells: E. coli C41(DE3)
T1 sequence (Q9H2K2 488-649): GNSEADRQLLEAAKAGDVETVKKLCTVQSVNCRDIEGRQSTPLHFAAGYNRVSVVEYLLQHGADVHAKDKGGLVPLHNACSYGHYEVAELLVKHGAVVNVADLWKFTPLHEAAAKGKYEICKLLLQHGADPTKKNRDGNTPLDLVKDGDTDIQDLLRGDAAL

T2: human tankyrase 2 ankyrin repeat cluster 4 (TNKS2 ARC4, residues 488-649) (human, UniProt Q9H2K2 488-649)
T2 sequence (looked up): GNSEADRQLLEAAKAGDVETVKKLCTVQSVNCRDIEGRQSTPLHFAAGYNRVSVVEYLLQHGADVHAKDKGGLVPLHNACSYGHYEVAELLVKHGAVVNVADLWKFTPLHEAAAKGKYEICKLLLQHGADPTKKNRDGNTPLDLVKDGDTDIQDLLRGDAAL

T3: human tankyrase 1 ankyrin repeat clusters 2-3 (TNKS1 ARC2-3, residues 315-662) (human, UniProt O95271 315-662)
T3 sequence (looked up): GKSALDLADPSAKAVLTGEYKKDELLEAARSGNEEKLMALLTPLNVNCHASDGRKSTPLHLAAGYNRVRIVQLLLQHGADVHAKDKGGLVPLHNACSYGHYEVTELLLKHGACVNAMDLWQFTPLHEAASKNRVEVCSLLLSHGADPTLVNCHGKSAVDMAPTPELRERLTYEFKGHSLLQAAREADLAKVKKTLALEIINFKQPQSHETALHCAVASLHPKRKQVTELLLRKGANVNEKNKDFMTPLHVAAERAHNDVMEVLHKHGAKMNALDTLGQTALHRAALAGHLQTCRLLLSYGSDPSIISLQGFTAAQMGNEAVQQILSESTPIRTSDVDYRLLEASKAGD


What follows are molecules tested against T1, TNKS2 ARC4 (assay: Direct fluorescence polarization, TNKS2 ARC4). Conditions: TAMRA-labeled peptides; n.d. = not detectable; read-out: Kd TNKS2 ARC4 (Direct FP).
Format: binding
Experimental: Fluorescence polarization (FP) assays were performed in 96-well half area black microplates (Corning) on a CLARIOstar microplate reader (BMG labtech) using excitation filter 540–20 nm, dichroic mirror LP 566 nm, and emission filter 590–20 nm. All peptides were dissolved in water as stock solutions. For direct FP assays, the stock concentrations of the TAMRA-labeled peptides were determined based on the 5-TAMRA absorbance at 556 nm (extinction coefficient ε = 89,000 M^–1 cm^–1) measured on a NanoDrop 2000 (Thermo Scientific) and verified by amino acid analysis (Department of Biochemistry, University of Cambridge). TNKS2 ARC4 (488–649) or TNKS1 ARC2–3 (315–662) was diluted 2-fold serially in the assay buffer (50 mM HEPES pH 7.5, 300 mM NaCl, 2 mM DTT, 0.05% (v/v) Tween 20) for a 12-point titration curve in triplicate. The diluted TAMRA-labeled peptide (20 nM, 50 μL) was mixed with the serially diluted TNKS2 ARC4 or TNKS1 ARC2–3 (40–0 μM, 50 μL) in each well and incubated for 30 min at 25 °C before the measurement. Data were analyzed on GraphPad Prism 5.0, and the dissociation constant, Kd, was determined using the following equation assuming the ratio between the concentration of the bound and that of the total TAMRA-labeled peptide is proportional to the fluorescence polarization [drawing 1] where FP is the fluorescence polarization, B is the minimum FP, T is the maximum FP, L0 is the total concentration of TAMRA-labeled peptide, P0 is the total concentration of protein, and Kd is the dissociation constant.

Row | Molecule | Kd
1 | CN(C)c1ccc2c(c1)Oc1cc(N(C)C)ccc1C21OC(=O)c2cc(C(=O)NCCCCCC(=O)N[C@@H](CCCNC(=N)N)C(=O)N[C@@H](CCC(=O)O)C(=O)N[C@H]3CCCn4cc(nn4)CCCc4cn(nn4)CCC[C@@H](C(=O)N[C@@H](CCC(=O)O)C(N)=O)NC(=O)CNC(=O)[C@H](CC(=O)O)NC(=O)CNC3=O)ccc21 [T-cp4n3m3] | 2.6 ± 0.1 µM

The molecules below were run against T2, human tankyrase 2 ankyrin repeat … (assay: fluorescence polarisation; competition: unlabeled peptide or Axin1 fragment diluted 2-fold serially against TAMRA-labeled pep1 (20 nM) with TNKS2 ARC4 (3 uM); PBS, 0.05% Tween 20; 30 min, 25 C). Conditions: both partners purified.

Row | Molecule | Kd
2 | Ac-R[n3]AGDG[n3]E (bridge 2-7; not fully specified (bridges)) [cp2n3m7N] | 14.7 ± 0.8 µM
3 | Ac-RE[Lys(N3)]GDG[Lys(N3)]E (bridge 3-7; not fully specified (bridges)) [cp4n4m7N] | 6.5 ± 0.2 µM
4 | Ac-RE[Lys(N3)]GDG[Lys(N3)]E-NH2 (bridge 3-7; not fully specified (bridges)) [cp4n4m5] | 2.8 ± 0.1 µM
5 | Ac-R[Lys(N3)]AGDGE[Lys(N3)] (bridge 2-8; not fully specified (bridges)) [cp3n4m7N] | 35.5 ± 2.5 µM
6 | Ac-R[Lys(N3)]AGDG[Lys(N3)]E (bridge 2-7; not fully specified (bridges)) [cp2n4m7N] | 32.4 ± 1.7 µM
7 | Ac-R[Lys(N3)]AGDGE[Lys(N3)] (bridge 2-8; not fully specified (bridges)) [cp3n4m5] | 23.4 ± 4.2 µM
8 | Ac-R[Lys(N3)]AGDG[Lys(N3)]E (bridge 2-7; not fully specified (bridges)) [cp2n4m5] | 14.1 ± 4 µM
9 | Ac-RE[Lys(N3)]GDGE[Lys(N3)] (bridge 3-8; not fully specified (bridges)) [cp5n4m5] | 7.9 ± 1.2 µM
10 | Ac-RE[Lys(N3)]GDGE[Lys(N3)] (bridge 3-8; not fully specified (bridges)) [cp5n4m5c] | 13.9 ± 2.1 µM
11 | Ac-R[Aha]AGDG[Aha]E (bridge 2-7; not fully specified (bridges)) [cp2n2m7N] | 53.3 ± 8.3 µM
12 | Ac-RE[Lys(N3)]GDG[Lys(N3)]E (bridge 3-7; not fully specified (bridges)) [cp4n4m5c] | 16.7 ± 2 µM

These molecules were tested against T2, human tankyrase 2 ankyrin repeat … (assay: ITC; TNKS2 ARC4 (160-280 uM) or TNKS1 ARC2-3 (60-150 uM) titrated into the cell with unlabeled peptide (5-15 uM) or Axin1 fragment (8-12 uM); PBS, 0.5 mM TCEP; 25 C; one-site model; stoichiometry = TNKS per peptide or Axin1). Conditions: both partners purified.

Row | Molecule | Kd | stoichiometry N
13 | Ac-RE[Aha]GDG[Aha]E-NH2 (bridge 3-7; not fully specified (bridges)) [cp4n2m3c (unlabeled)] | 0.64 ± 0.01 µM | 1.1 ± 0.002
14 | Ac-REAGDGEE-NH2 [pep1 (unlabeled linear consensus peptide Ac-REAGDGEE)] | 1.18 ± 0.04 µM | 1 ± 0.004
15 | Ac-RE[Aha]GDG[Aha]E-NH2 (triazole 3-7 via m3; reading uncertain) [cp4n2m3 (unlabeled)] | 0.89 ± 0.04 µM | 0.9 ± 0.005

The molecules below were run against T3, human tankyrase 1 ankyrin repeat … in the same assay as above. Conditions: both partners purified.

Row | Molecule | Kd | stoichiometry N
16 | Ac-RE[Aha]GDG[Aha]E-NH2 (bridge 3-7; not fully specified (bridges)) [cp4n2m3c (unlabeled)] | 0.37 ± 0.04 µM | 1.1 ± 0.02
17 | Ac-REAGDGEE-NH2 [pep1 (unlabeled linear consensus peptide Ac-REAGDGEE)] | – | 0.9 ± 0.01
18 | Ac-RE[Aha]GDG[Aha]E-NH2 (triazole 3-7 via m3; reading uncertain) [cp4n2m3 (unlabeled)] | 0.26 ± 0.03 µM | 0.9 ± 0.01

Each molecule was assayed against T2, human tankyrase 2 ankyrin repeat … (assay: fluorescence polarisation; direct: TNKS2 ARC4 or TNKS1 ARC2-3 diluted 2-fold serially (40-0 uM, 50 uL) and mixed with TAMRA-labeled peptide (20 nM, 50 uL); 50 mM HEPES pH 7.5, 300 mM NaCl, 2 mM DTT, 0.05% Tween 20; 30 min, 25 C). Conditions: both partners purified.

Row | Molecule | Kd
19 | {5‑TAMRA-Ahx}-RE[Dap(N3)]GDG[Aha]E (triazole 3-7 via m4; reading uncertain) [T-cp4n12m4] | 8.9 ± 0.3 µM
20 | {5‑TAMRA-Ahx}-RE[Aha]GDG[n3]E (triazole 3-7 via m5; reading uncertain) [T-cp4n23m5] | 4.3 ± 0.2 µM
21 | {5‑TAMRA-Ahx}-RE[Aha]GDG[n3]E (triazole 3-7 via m3c; reading uncertain) [T-cp4n23m3c] | 15.5 ± 0.6 µM
22 | {5‑TAMRA-Ahx}-RE[Dap(N3)]GDG[Aha]E (triazole 3-7 via m5; reading uncertain) [T-cp4n12m5] | 7.7 ± 0.3 µM
23 | {5‑TAMRA-Ahx}-RE[Aha]GDG[Dap(N3)]E (triazole 3-7 via m4; reading uncertain) [T-cp4n21m4] | 5.8 ± 0.2 µM
24 | {5‑TAMRA-Ahx}-RE[n3]GDG[Aha]E (triazole 3-7 via m3c; reading uncertain) [T-cp4n32m3c] | 15.3 ± 0.6 µM
25 | {5‑TAMRA-Ahx}-RE[n3]GDG[Aha]E (triazole 3-7 via m4; reading uncertain) [T-cp4n32m4] | 11.1 ± 0.9 µM
26 | {5‑TAMRA-Ahx}-RE[Dap(N3)]GDG[Dap(N3)]E (triazole 3-7 via m4; reading uncertain) [T-cp4n1m4] | 61.8 ± 33.9 µM
27 | {5‑TAMRA-Ahx}-RE[n3]GDG[Aha]E (triazole 3-7 via m5; reading uncertain) [T-cp4n32m5] | 4.2 ± 0.12 µM
28 | {5‑TAMRA-Ahx}-RE[Aha]GDG[n3]E (triazole 3-7 via m4; reading uncertain) [T-cp4n23m4] | 1.7 ± 0.05 µM
29 | {5‑TAMRA-Ahx}-RE[Aha]GDG[Dap(N3)]E (triazole 3-7 via m3; reading uncertain) [T-cp4n21m3] | 22.8 ± 1.3 µM
30 | {5‑TAMRA-Ahx}-RE[Aha]GDG[Dap(N3)]E (triazole 3-7 via m5; reading uncertain) [T-cp4n21m5] | 13.6 ± 1.1 µM
31 | {5‑TAMRA-Ahx}-RE[Dap(N3)]GDG[Aha]E (triazole 3-7 via m3; reading uncertain) [T-cp4n12m3] | 12.5 ± 0.5 µM
32 | {5‑TAMRA-Ahx}-RE[n3]GDG[Aha]E (triazole 3-7 via m3; reading uncertain) [T-cp4n32m3] | 6.1 ± 0.2 µM
33 | {5‑TAMRA-Ahx}-RE[n3]GDG[n3]E (bridge 3-7; not fully specified (bridges)) [T-cp4n3m3c] | 15.4 ± 0.6 µM
